Results from patent publication US20230406951A1 (Pfizer, published 2023).

Experiments:
cynomolgus monkey TNFR2 [1] = target: T1, cynomolgus monkey TNFR2 (cynomolgus monkey, UniProt P20333 23-461 (human entry)); experiment: binding to CHO cells over-expressing cyno TNFR2
T1 construct: Cyno TNFR2 over-expressed on CHO cells or native on cyno primary cells; also called Cy TNFR2; cyno TNFR2
T1 chain: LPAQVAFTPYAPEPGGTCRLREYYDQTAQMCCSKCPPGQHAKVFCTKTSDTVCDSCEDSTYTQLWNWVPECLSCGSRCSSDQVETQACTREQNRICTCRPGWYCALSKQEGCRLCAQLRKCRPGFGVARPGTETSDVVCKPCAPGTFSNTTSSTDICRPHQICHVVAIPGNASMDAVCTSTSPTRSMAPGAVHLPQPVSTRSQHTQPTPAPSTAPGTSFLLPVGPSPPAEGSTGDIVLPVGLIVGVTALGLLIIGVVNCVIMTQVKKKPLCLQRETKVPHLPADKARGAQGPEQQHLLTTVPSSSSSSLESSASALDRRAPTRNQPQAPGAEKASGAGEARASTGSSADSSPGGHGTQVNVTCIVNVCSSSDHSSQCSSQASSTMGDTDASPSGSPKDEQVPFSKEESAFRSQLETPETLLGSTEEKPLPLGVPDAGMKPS

cynomolgus monkey TNFR2 [2] = target: T1, cynomolgus monkey TNFR2; experiment: cell-based or functional assay
human TNFR2 [3] = target: T2, human TNFR2 (human, UniProt P20333 23-461); experiment: cell-based or functional assay
T2 sequence: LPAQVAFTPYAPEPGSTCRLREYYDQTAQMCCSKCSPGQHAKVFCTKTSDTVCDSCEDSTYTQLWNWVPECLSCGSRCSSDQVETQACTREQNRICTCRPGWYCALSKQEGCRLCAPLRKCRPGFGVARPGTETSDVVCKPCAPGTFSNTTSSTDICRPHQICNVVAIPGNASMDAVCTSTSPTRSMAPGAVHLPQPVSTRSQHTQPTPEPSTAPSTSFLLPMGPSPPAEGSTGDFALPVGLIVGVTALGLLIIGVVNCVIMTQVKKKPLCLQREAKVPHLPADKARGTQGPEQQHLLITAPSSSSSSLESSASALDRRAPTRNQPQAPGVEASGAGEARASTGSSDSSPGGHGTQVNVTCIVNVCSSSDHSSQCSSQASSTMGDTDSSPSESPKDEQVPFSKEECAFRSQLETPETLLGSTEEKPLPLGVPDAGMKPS

cynomolgus monkey TNFR2 [4] = target: T1, cynomolgus monkey TNFR2; experiment: cell-based or functional assay
human TNFR2 [5] = target: T2, human TNFR2; experiment: cell-based or functional assay; remark: listed apart in the source
human TNFR2 [6] = target: T2, human TNFR2; experiment: binding to human TNFR2 CHO cells
human TNFR2 [7] = target: T2, human TNFR2; experiment: cell-based or functional assay; remark: listed apart in the source
human TNFR2 [8] = target: T2, human TNFR2; experiment: binding to human TNFR2 CHO cells; remark: listed apart in the source
cynomolgus monkey TNFR2 [9] = target: T1, cynomolgus monkey TNFR2; experiment: binding to cyno TNFR2 CHO cells (repeats Table 1)
human TNFR2 [10] = target: T2, human TNFR2; experiment: binding to CHO cells over-expressing human TNFR2
human TNFR2 [11] = target: T2, human TNFR2; experiment: cell-based or functional assay; remark: listed apart in the source
human TNFR2 [12] = target: T2, human TNFR2; experiment: binding to human TNFR2 CHO cells (repeats Table 1)
biotinylated human TNFR2 = target: T3, biotinylated human TNFR2 (human, UniProt P20333 23-257, biotinylated); experiment: SPR (BIAcore), biotinylated TNFR2 captured on streptavidin chip, antibody as analyte (apparent affinity)
T3 construct: Soluble biotinylated protein captured on a streptavidin chip for SPR; also called HuTNFR2
T3 sequence: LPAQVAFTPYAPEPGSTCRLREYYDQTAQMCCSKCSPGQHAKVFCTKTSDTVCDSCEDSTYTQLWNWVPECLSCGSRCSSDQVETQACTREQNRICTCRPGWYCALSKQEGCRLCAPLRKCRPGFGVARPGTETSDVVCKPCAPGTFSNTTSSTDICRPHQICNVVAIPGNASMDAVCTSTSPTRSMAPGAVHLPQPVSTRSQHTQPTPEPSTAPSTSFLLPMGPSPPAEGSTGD
Experimental: (§1) Increased avidity was confirmed by Surface Plasmon Resonance (SPR) using a BIAcore. Briefly, biotinylated human- or cyno-TNFR2 was captured on the surface of a streptavidin chip for 60 seconds at a flow rate of […]. […] The dissociation phase was then initiated with running buffer (HBS-EP+) injected for 600 seconds at […]. Data were analyzed using the Biacore Evaluation Software.

biotinylated cyno TNFR2 = target: T4, biotinylated cyno TNFR2 (cynomolgus monkey, UniProt P20333 23-257 (human entry), limits assumed, biotinylated); experiment: as above
T4 construct: Soluble biotinylated protein captured on a streptavidin chip for SPR; also called CyTNFR2
T4 chain: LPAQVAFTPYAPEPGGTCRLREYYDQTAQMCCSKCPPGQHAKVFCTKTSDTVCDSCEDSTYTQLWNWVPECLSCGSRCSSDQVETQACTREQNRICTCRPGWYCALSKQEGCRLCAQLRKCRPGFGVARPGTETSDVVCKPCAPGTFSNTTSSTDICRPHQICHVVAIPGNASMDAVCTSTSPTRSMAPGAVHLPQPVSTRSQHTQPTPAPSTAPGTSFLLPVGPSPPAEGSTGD
Experimental: as §1

EC50 (cynomolgus monkey TNFR2 [1]): 0.13 µg/mL
EC50 (CyPBMC) (cynomolgus monkey TNFR2 [2]): 15 nM
EC50 (HuPBMC) (human TNFR2 [3]): 1.4 nM
Jurkat EC50 (human TNFR2 [3]): 1.74 µg/mL
EC50 CyPBMC (CD25+/Ki67+ of CD4+ cells) (cynomolgus monkey TNFR2 [4]): 27.2 µg/mL
EC50 HuPBMC (ICAM-1 up-regulation) (human TNFR2 [5]): 1.4 µg/mL
EC50 (human TNFR2 [6]): 1.13 nM
Jurkat (ng/ml), EC50 in NF-KB-GFP reporter assay (human TNFR2 [7]): 711 ng/mL
EC50 (human TNFR2 [8]): 1.13 nM
EC50 (cynomolgus monkey TNFR2 [9]): 0.13 µg/mL
EC50 (human TNFR2 [10]): 0.106 µg/mL
EC50 Jurkat (human TNFR2 [11]): 0.526 µg/mL
EC50 (human TNFR2 [12]): 0.106 µg/mL
Kd (biotinylated human TNFR2): 0.11 nM
koff (biotinylated human TNFR2): 0.00125 s⁻¹
kon (biotinylated human TNFR2): 1.13e+07 M⁻¹ s⁻¹
Kd (biotinylated cyno TNFR2): 0.89 nM
koff (biotinylated cyno TNFR2): 0.00996 s⁻¹
kon (biotinylated cyno TNFR2): 1.12e+07 M⁻¹ s⁻¹
B1: GBT-TNFR2-854 (parental) (antibody, human IgG2, kappa, V domains shown)
VH: QVQLKESGPGLVAPSQSLSITCTVSGFSFPSSGVDWVRQSPGKGLEWLGVTWGVGSTHYNSALKSRLSISKDNSKSQVFLKMNSLQTEDTAIYYCASGEWDEGFVYWGQGTLVTVSA
VL: DIVMTQSQKFMSTTVGDRVSITCKASQNVGTAVAWYQQKPGQSPKLLIYSASNRYTGVPDRFTGSGSGTDFTLTISNMQSEDLADYFCQQYSSYPLTFGGGTKLEIKR
notes: Chimeric mouse V / human IgG2 effector-null, kappa; same hybridoma clone as IgG1 825
